Source: the nanobody polyreactivity screen of Harvey et al. (2022)

test: yeast display, Sf9 membrane polyspecificity reagent, FACS + sequencing; frameworks hold sequencing errors
In short: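 Genes from sorted yeast were amplified by colony PCR, read by MiSeq 2 × 250 sequencing and filtered on CDR length. These cells carried a synthetic nanobody library in Saccharomyces cerevisiae BJ5465 and were sorted by FACS into low and high (top ~1%) gates on anti-HA and streptavidin fluorescence. Polyreactivity is labelled according to the gate of origin.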

Row | Sequence | polyreactivity (PSR sort gate)
1 | QVQLVESRGGLVQAGGSLRLSCPDSGITLSEYAMGWYRQAPGKERELVATISWRGGTTYYADSVKGLFTISRDNAKNTVSLQMIILNPEDTAVYYCAASWWSFGCYTWKAYDYWGQGTQVTVSS | high polyreactivity
2 | QVQLVESRGGLVQAGGSLRLSSAASAFIFGSNAMGWYRQAPGKERELVAAISRSGGSTYYADSVKGRFTISRDNAKKTVYLQMNSLKPEDTAVYYCNVDLWPFVYSWWSYDYWGPGTQVTVSS | high polyreactivity
3 | QVQLVESRGGLVQAGGSLRLSSAASGSIIWYYAMGWYRQAPGKERELVAAITVSGGSTYYADSVKGRFTISRDNAKNTVYLQMNSLKPEDSAVYYCAARYISLSGDEYDYWGQGTQVTVSA | low polyreactivity
4 | QVQLVESRGGLVQAGRSLRLSCAASGSTFVQYVMGWYRQAPGKERELVAAITRSGGSTYYADSVKGRFTISRDNAKNTVYLHMNSLKPEDTAVYYCAAVPWRRSTRYDYWGQGTQVTVSS | high polyreactivity
5 | QVQLVESRGGLVQAGVSLRLSCASSGRIVGWYAMGWYIQAPGKERELVAVITWSDGRTYYADSVKGRFTISRDNAKNTVYLQMNSLKPEDTAVFYCAAADWITEYDYWGQGTQVTVSS | low polyreactivity
6 | QVQLVESRGGLVQAGVSLRLSCSASGSIFPYYAMGWYRQAPGKEREFVASISSVTSTYADSVKGRFTISRDNAKNTVYFQMYILIPEDTAVYYFAADRAYSWYSVSRNNYWGPGTQVTVSS | low polyreactivity
7 | QVQLVESRGRLVQAGGSLRLSCAASGFSFVINDMGRYRQAPGKERELVADITSGGDTYYADSVKGRFTISRDNAKNTVYLQKNSLKPEDTAVYYCAADIYRDLIYLLYGYWGQGTQVTVSS | low polyreactivity
8 | QVQLVESRGVLVQAGGSLRLSCAASGRTFYFYVKGWYIQEPGKERELVARISYSDGSTYYADSVKGRFTISRDNAKNTVYLQMNSLKPEDTAVYYCNAYDPYFGRRYDYWGQGTQVTVSS | low polyreactivity
9 | QVQLVESRGVLVQAGGSLRLSCAASGSNFYVYAMGWYRPAPGKERELVAGISWSADSTYYADSVKGRFTISRDNAKYTVYLQMNSLKPEDSAVYYCATDRYPTRRYDYWGQGTQVTVSS | low polyreactivity
10 | QVQLVESRVGLVQAGGSLRLSCAASGITLYYYALGWYRHAPGKEREFVAAITWRGTTTYYADSVKGPFTISRDNAKNTVYLQMNSLKPEDTALYYCAAEHEQRVADYYYWGQGTQVTVSS | low polyreactivity
11 | QVQLVESSGGLVQAGGSLRLRCAASGMISEYNAMGWSRQAPGKERELVAAITWNGGSTFYADSVKGRFTISRDNAKNTVYLQMNSLKPEDTAVYYCNKTRLEPEYGYWGQGTQVTVSS | low polyreactivity
12 | QVQLVESVGALVQAGGSLRLSCAASGSTFRRNAMGWYRQAPGKERELVATITTRGGSTYYADSVKGRFTLSRDNAKNTVNLQMNSLKPEDTAVYYCAADRRSGYSRSKYGRGDYWGQGTQVTVSS | high polyreactivity
13 | QVQLVESVGCLVQAGGSHRLSCAASVFIFGANAMGWYRQAPGKESELVAAIRWSSGTTYYADSVKGRFTISRDNAKNTVYLQINSLKPEDTAVYYCAAGGLARTWYAYYYWGQGTQVTVSS | low polyreactivity
14 | QVQLVESVGGIVQAGGSLRLSCAASGGICYEYAMGWYRQAPGKERELVATISFNVASTYADSVKGRFTISRDNAKNTVYLQMNSLKPEDTAVDYCIADTYWDRDSRYDYWGLGTQVTVSS | low polyreactivity
15 | QVQLVESVGGIVQAGGSLRLSCAASGRTFTYNVMGWYRQAPGKEMELVAAITSGGSNYADSVKGRFTISRDNAKNTVYLQMNSLTPEDTAGYYCATDYYEDVTIGYDYWGQGTQVTVSS | low polyreactivity
16 | QVQLVESVGGLDQAGGSLRLSCAASGSTFRYYVMGWYRQAPGKERELVAGITRGGSTNYADSVKGRFTISRENAKNTVYLQMNSLKPEDTAVYYCASRGGWKRPFGYQLQYDYWGQGTQLTVSS | high polyreactivity
17 | QVQLVESVGGLDQAGGSLRLSGAASGIIFEGNALGWYRQAPGKERELVAAITSRGTRTYYADSVKGRFTISRDHAKNTVYLQMNSLKPEDTAVYYCAKLTSVTGKSGRYGYEYWGQGTQVTVSS | high polyreactivity
18 | QVQLVESVGGLVQAGASLRLSCAPSGSTFPVYAMGWYRPAPGKESELVARISSGSSTNYADSVKGRFTISRDNAKITVYLQMNSLKPEDTAVYYCAAQTPRFVWQKGPLDSEDYWGQGTQVTVSS | high polyreactivity
19 | QVQLVESVGGLVQAGGILRLSCAPSGSTSYGNAMGWYRQAPAKVRELVAAISSSGSSTYYADSVKGRFTISRDNAKNTVYLQMNSLKPEDTAVYYCNKRRSHSYYSRRFDYWGQGTQVTVSS | high polyreactivity
20 | QVQLVESVGGLVQAGGSHRLSCAASGRTFYQYTMGWSRQAPGTERELVAAITTSTGNTYYADSVKVRFTISRDNAKNTVYLQMNRLKPADTAVYECAADTVWPLDYWGLGTQVTVSS | low polyreactivity
21 | QVQLVESVGGLVQAGGSIRLSCAASGRIIDVNAMGWYRQAPGKERELVAAIRSGGRTNYADSVKGRFTISRDNAKNTVYLQMNSLKPEDTAVYYCGAVVWSSLDDYWGQGTQVTVSS | high polyreactivity
22 | QVQLVESVGGLVQAGGSLPLSCAASGLTFPSYAMGWYRQAPGKERELVAAISASGSSTYYADSVKGRFTISRDNAKNTVYLQMNSLKPEDTAVYYCNARKPATVSRYGYWGQGTQVTVSS | high polyreactivity

Row | Sequence | polyreactivity (PSR sort gate)
23 | QVQLVESVGGLVQAGGSLRISCAASGRIFSGNAMGWYRQAPGKERELVASISRSGGRTRYADSVKGRFTISRDNAKNTVYLQMNSLKPEDTAVYYFTALSTQSYYFTYAGYDYWGQGTQVTVSS | high polyreactivity
24 | QVQLVESVGGLVQAGGSLRISCAASGSIFAVYAMGWYRQAPGKESELVAAITSSGGRTYYADSVKGRFTISRDNAKNTVYFQMNSLKPEDTAVYYSATRGDTRWGLDYWGQATQVTVSS | high polyreactivity
25 | QVQLVESVGGLVQAGGSLRISSAASGRIFTGNGMGWYRQAPGKERELVASITYNGGRTYYADSVKGRFTISRDNAKNTVYLQINSLKPEDTSVYYCNAGDYGFRYEYWGQGTQVTVSS | low polyreactivity
26 | QVQLVESVGGLVQAGGSLRLICAASGFTFRRNAIGWYRQAPGKERELVAAITRSGGITYYADSVKGRFTISRDNAKNTVYLQMNSLKPEDTAVYYCNKQVTGAERFQGHGAYYWGQGTQVTVSS | high polyreactivity
27 | QVQLVESVGGLVQAGGSLRLICAASGSTFTWYAIGWNRQAPGKERELVADITWRDGSTYYADSVKGRFTISRDNAKNTVYLQMNSLKPEDTAVYYCAADYTYWGIFFGYWGQGTQVTVSS | high polyreactivity
28 | QVQLVESVGGLVQAGGSLRLICDASGFTFYAYAIGWYRQAPGKERELVAAITYIGSTYYADSVKGRFTISRDNAKNTVYLQMNSLKPEETAVYYCAVEFLPSFNRYDYWGQGTQVTVSS | low polyreactivity
29 | QVQLVESVGGLVQAGGSLRLRCGASGSIFYIYAMGWYRHAPGNERELVAAITRRAATYADSVKGRFTISRDNAKKTGYLQMNSLKPEDTAVYYCNADVQRLGRYDYWGQGTQVTVSS | high polyreactivity
30 | QVQLVESVGGLVQAGGSLRLSCAASARIFRYYAMGWDRQAPGKERELVAAITWNGGSTYYADSVKGRFTISRDNAKNTVYVQLNSLKPEDTAVYYCAAVSYYTHYRLPYDYWGQGTQVTVSS | high polyreactivity
31 | QVQLVESVGGLVQAGGSLRLSCAASGFIFRGYALGWYRQARGKEWELVAAMNAGDSTNYADSVKGRFTISRDTAKNTVYLQMNSLKPEETAVYYCAASIYAALNGGPGYDYWGQGTQVTVSS | low polyreactivity
32 | QVQLVESVGGLVQAGGSLRLSCAASGFIFSVYAMGWNRQAPGKERELVAVISTSGGRTYYADSVKGRFTISRDNAKNTVYLQMNSLKPEDTAVDYCAADGFQYTLGNYYWGQGTQVTLSS | high polyreactivity
33 | QVQLVESVGGLVQAGGSLRLSCAASGFIFTLYTMGWYRHAPGKERELVADIDKNGSTYYADSVKGRFTISRDNAKITVYLRMYSLKPEDTAFYYCAADDRYRGNREDYWGQGTQVTVSS | low polyreactivity
34 | QVQLVESVGGLVQAGGSLRLSCAASGFTFGPYAMGWYRQSPGKERELVAPIDDSGGNTYYADSVKGRFTISRDNAKNTVYLQMNSLKQEDTAVYYCNAFGADYYHVYPAEDYWGQGNQVTVSS | low polyreactivity
35 | QVQLVESVGGLVQAGGSLRLSCAASGFTFPWNVMGRYRQAPGKERELVAAITYDGGGTYADSVKGRFTISRDNAKNTVYLQMNSLKPEDTAVYYCNADLINGEEYDYWGQGTQVTVSS | low polyreactivity
36 | QVQLVESVGGLVQAGGSLRLSCAASGFTFTRYAMGWYRQAPGKERELVAAISSGGDTYYADSVKGRFTISRDNAKNTVYLQMNSLKPEDTAVYYCAADQSSLDYGNDYWGQGTQVTVSS | low polyreactivity
37 | QVQLVESVGGLVQAGGSLRLSCAASGGIFNTYAMGWYRQAPGKEREFVAANSRRGGGTYYADSVKGRFTISRDNAKNTVYLQMNSLKPEDTAVYYCNADVKRGSRGYGSDHWGQGTQVTVSS | high polyreactivity
38 | QVQLVESVGGLVQAGGSLRLSCAASGGIFYKYAMGWYRQAPGNERELVAAITGRGGSTNYADSVKGRFTISRDNSKNTVYLQMNSLKPEDNAVYYCAADLRLYSSQDNDYWGQGTQVTVSS | low polyreactivity
39 | QVQLVESVGGLVQAGGSLRLSCAASGIIFARYAMGWYRQAPGKERELVASISWSTGNTYYADSVKGRFTISRDNAKNTVYLQMNSLKPEDTAVYYCAATYRRKYWTMDYWGQGTQVTVSS | high polyreactivity
40 | QVQLVESVGGLVQAGGSLRLSCAASGITFFGNAMGWYRQAPGKERELVASISNGDNTNYADSVKGRFTISRDNAKNTVYLQMNSLKPEDTAVYYCAAWLAYSSRYGYWGQGTQVSVSS | low polyreactivity
41 | QVQLVESVGGLVQAGGSLRLSCAASGITLYGYAMGWYRQAPGKERELVAAISWRGGRTYYADSVKGRFTISRDNAKNTVYVQMNSLKPEDTAVYYCLARSYYNWYDYWGQGTQVTVSS | high polyreactivity
42 | QVQLVESVGGLVQAGGSLRLSCAASGLIFPWYAMGWYRQAPGKERELVAAIRWRGGGTYYADSVKGRFTISRDNAKNTVYLQMNSLKPEDTAVYYCAARRPAKGMGYWGQGTQVTVSS | high polyreactivity
43 | QVQLVESVGGLVQAGGSLRLSCAASGNIFSSYAMGWYRQAPGKERELVARITTSAGRTYDADSVKGRFTISRDNAKNTVDLQMNSLKPEDTPVYYCAVDWYGSYGYGGSQNSDYWGQGTQVTVSS | high polyreactivity
